From the nanobody polyreactivity screen of Harvey et al. (2022)

Experiment: yeast display, Sf9 membrane polyspecificity reagent, FACS + sequencing; frameworks hold sequencing errors
In short: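 Genes from sorted yeast were amplified by colony PCR, read by MiSeq 2 × 250 sequencing and filtered on CDR length. These cells carried a synthetic nanobody library in Saccharomyces cerevisiae BJ5465 and were sorted by FACS into low and high (top ~1%) gates on anti-HA and streptavidin fluorescence. Polyreactivity is labelled according to the gate of origin.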

Sequence | polyreactivity (PSR sort gate)
QVQLVESGGGLVQAGGSLRLSCAASGSNMGDNGMGWYRKAPGKERELVAAITNGGSTTYADSVKGRFTISRDNAKNTVYLQMNSLKPEDTAVYYCAADQQDRDQYSDWTEYDYWGQGTQVTVSS | low polyreactivity
QVQLVESGGGLVQAGGSLRLSCAASGSNYRNAMGWYRQAPGKERELVAAISSSGGRTYYADSVKGRFTISRDNAKNTVYLKMNSLKPEDTAVYYCAKVGPYWSRGKYWGQGTQVTVSS | high polyreactivity
QVQLVESGGGLVQAGGSLRLSCAASGSPFFPYAMGGYRQAPGKERELVAGISSDGGTSYADSVKGRFTISRDNAKNTVYLQMNSLKPEDTAVYYCAKETIGQDPVSGAWARHEYDYWGQGTQVTVSS | low polyreactivity
QVQLVESGGGLVQAGGSLRLSCAASGSPFKRYAMGWYRQAPGKERELVASITRRGGSTYYADSVKGRFTISRDNAKNTVYLKMNSLKPEDSAVYYCAALQGRSSARQDSYGYWGQGTQVTVSS | high polyreactivity
QVQLVESGGGLVQAGGSLRLSCAASGSPFYNYAMGWYRQAPGKERELVAAIRNGGGTNYADSVKGRFTISRDNAKNTVYLQMNSLKPEDTAVYDCNKAYGVSGTGVDYWGQGTQVTVSS | low polyreactivity
QVQLVESGGGLVQAGGSLRLSCAASGSSFAENAMGWSRQAPGKERELVATIRSGGSTYADSVKGRFTISRDNAKKTVNLQMNILKPEDTAVYYCATDRYPHSATPGDYWGQGTQVTVSS | low polyreactivity
QVQLVESGGGLVQAGGSLRLSCAASGSSFGSNAMGWSRPAPGKERELVAAITGGDVSTYYADSVKGRFTISRDNAKNTVYLQMNSLKPEDTAVYYCNAEYARPAMDYWGQGTQVTVSS | low polyreactivity
QVQLVESGGGLVQAGGSLRLSCAASGSSFGYYAMGWYRPAPGKERELVAAITRRGVNTYYADSVKGRFTISRDNAKNTVYLQMNSLKPEDTAVYYCAATWWQYAQGLHRYDYWGQGTQVTVSS | high polyreactivity
QVQLVESGGGLVQAGGSLRLSCAASGSSFPENAMGWYRQAPGKERQLVAGISRSDAGTHYADSVKGRFTISRDNAKNTVYVQMNSLKPEDTAVYYFDAGGTDEDRLTSWVGLFPAYYYWGQATQVTVSS | low polyreactivity
QVQLVESGGGLVQAGGSLRLSCAASGSSFSRNAMGWYRQAPGKESELVAAISWSGGRTYYAASVKGRFTISRDNAKNTVYLQMNSLKPEDTAVYYCAKGYSYHWYHVTYYSLGQGTQVTVSS | high polyreactivity
QVQLVESGGGLVQAGGSLRLSCAASGSSFSSYAMGRYRQAPAKERELVASNNIGGSTNYADSVKGRFTISRDNAKITVYLHMNSLKPEDTAVYSCNAVGYNVGGEGDYWGQGTQVTVSS | high polyreactivity
QVQLVESGGGLVQAGGSLRLSCAASGSSFSWNAMGWYSQAPGKERELVAAISKRGTSTYYADSVKGRFTISRDNAKKTVYLQMNSLKPEDTAVYYCAARRYYGVYYAFYYWGQGTQVTVSS | high polyreactivity
QVQLVESGGGLVQAGGSLRLSCAASGSSFVRNGMGWYRQAPGKERELVASIRGSGSRTYYADSVKGRFTISRDNAKNTVYLQMNSLKPEDTAVYYCAAGYWRYYHYPPASGYWGQGTQVTVSS | high polyreactivity
QVQLVESGGGLVQAGGSLRLSCAASGSSFWSNAMGWYRQAPGKEREFVAAINWSGDNTYYADSVKGRFTISRDNSKNKVYLKLISLKPEDTAVYYCIGVGDYPKYSGGFDYCGQGTQVTVSS | low polyreactivity
QVQLVESGGGLVQAGGSLRLSCAASGSTCYSNAMGWYRQAPGNERELVAGISGSGGSTYYADSVKGRFTISRDNAKNTVYLHMNSLKPEDTAVYYCNARKTRSYFRFDSWGQGTQVTVSS | low polyreactivity
QVQLVESGGGLVQAGGSLRLSCAASGSTDSNAMGWNRQAPGKEREMVAPISGTGSRTYYADSVKGRFTISRDNAKNTVYFQLNSLKTEDTAVYYCNKDVYGYSRTGPRGYDYWGQGTQVTVSS | high polyreactivity
